“Also recorded” adds a separate entry of the source. Values belong to the molecule of their own block, whether it stands above or below them.
What was measured:
[1] = starch-phosphorylation assay (33P-β-ATP radio-label incorporation into starch); assay type: biochemical, Arabidopsis; conditions: for ability to phosphorylate starch (specific activity): FIG. 2, FIG. 3
Procedure: FIG. 8 includes the framework for the C6 versus C3 assay. To label the C6-position, non-phosphorylated starch is incubated in the presence of GWD and ^33P-β-ATP, the protein and label are washed away, and the starch is incubated in the presence of ATP and PWD. The C3 position is labeled in a similar manner, except ^33P-β-ATP is used with PWD. These products are then used as substrates in dephosphorylation assays. A starch-phosphorylation assay is routinely used in the lab to measure the specific activity of protein constructs. This assay has 3 benefits: it utilizes an endogenous substrate, measures the amount of phosphate added to glucose (dikinase activity), and allows comparison of addition to the C3- and C6-positions (site-specific activity) (FIG. 8). Phosphate-free starch was isolated from plants lacking the dikinase GWD, and the sample dialyzed to remove free phosphate. To measure dikinase activity, this phosphate-free starch was used as the substrate. The starch was incubated with the dikinase in question along with ^33P-β-ATP, the ^33P-β-ATP and dikinase was washed out, and radio-label incorporation into the starch was measured.

[2] = glucose release from native starch treated with combinations of amylases, dikinase and phosphatase; assay type: biochemical, Arabidopsis
Procedure: FIG. 7 includes a plot showing the glucose released for native Arabidopsis starch that was incubated at 25° C. for 60 minutes with combinations of amylases (BAM+ISA), dikinase (At-GWD), or phosphatase (At-SEX4), undigested starch was pelleted with a high-speed spin, the supernatant sugars were hydrolyzed via acid hydrolysis and glucose content was measured.
To observe how GWDs can be utilized to enhance starch utilization, native Arabidopsis starch was first treated with combinations of BAM3, ISA3, St-GWD, and At-SEX4. a high-speed spin was performed to remove the undigested starch, any remaining oligo-saccharides were hydrolyzed, and glucose released into the supernatant was measured (FIG. 7). Glucose was only released upon addition of amylases.
Native Arabidopsis starch was treated with combinations of BAM3, ISA3, StGWD, and AtSEX4, performed a high-speed spin to remove the undigested starch, hydrolyzed any remaining oligo-saccharides, and measured glucose released into the supernatant (FIG. 7). Glucose was only released upon addition of amylases, as expected.

Molecule: Cm-GWD: full length Cyanidioschyzon merolae glucan, water dikinase, amino acids 1-1572
activity compared with At-GWD and At-PWD ([1]; FIG. 2): between that of At-GWD and At-PWD | ability to phosphorylate starch (specific activity) [1]: robust specific activity

phosphorylation of starch by chimeric CBM-dikinase ([1]; phosphate-less Arabidopsis (sex1-3) starch or potato starch, FIG. 11A): robustly phosphorylated starch
Molecule: NcCBM20-AtPWD: CBM20 of Neurospora crassa NCU08746 fused N-terminally to the dikinase domain of PWD
priming of starch for phosphorylation by wild-type AtPWD ([1]; sex1-3 starch pretreated with the enzyme, FIG. 11B): served to prime wild-type AtPWD; also recorded: to a greater extent than starch pretreated with wild-type StGWD

effect on glucose release when used with AtGWD ([2]; amylases plus AtGWD plus SEX4 (full starch phosphorylation cycle)): more than doubling | effect on glucose release when used with St-GWD ([2]; amylases plus St-GWD plus SEX4 (full starch phosphorylation cycle)): more than doubling
B1: SEX4: Arabidopsis glucan phosphatase Starch EXcess4 (protein, UniProt Q9FEB5 55-379, looked up)
Phosphoglucan phosphatase …: SESKSSSEMSGVAKDEEKSDEYSQDMTQAMGAVLTYRHELGMNYNFIRPDLIVGSCLQTPEDVDKLRKIGVKTIFCLQQDPDLEYFGVDISSIQAYAKKYSDIQHIRCEIRDFDAFDLRMRLPAVVGTLYKAVKRNGGVTYVHCTAGMGRAPAVALTYMFWVQGYKLMEAHKLLMSKRSCFPKLDAIRNATIDILTGLKRKTVTLTLKDKGFSRVEISGLDIGWGQRIPLTLDKGTGFWILKRELPEGQFEYKYIIDGEWTHNEAEPFIGPNKDGHTNNYAKVVDDPTSVDGTTRERLSSEDPELLEEERSKLIQFLETCSEAEV
effect on glucose release when added to amylases ([2]; BAM3, ISA3, 25° C., 60 minutes, FIG. 7): did not enhance glucose release on its own

B2: truncated Cm-GWD construct (residues 511-1572): truncated Cm-GWD encoding the second predicted CBM and catalytic dikinase domain (protein)
chain: MTILGLERRSLDDDGETVICFSVEEDGFALRVHADLSPLVIHWGIARHRVTEFLQPDESLAVETKGRTYRFENKAMRTEFVPDEHHQGTYYAEIHLKKEHAPRAVTFVLFNPELNRWYRAEGGGNFVLRMDLESFSQLPGSVGKHEDVAQKIIEVEVEYGSWTLMHRYNLANDILRNSMSALDADLLQIVFVWLRYSFLRQLDWQRSYNTQPRLLAHAQEQLTTTLAQVFVSRPDLRLWVRLCLSMLGRGGGNGQRIRDDILRIMHKHHIPETPGHFMEQWHQKLHNNTTPDDVAICESYLAFLRSNGDKNVFYETLQKHGVTKERLASYERPIFAEVQTYPCDTNSLIHDFEEYLHVLKSVHSGTDLAVVLDYARWTLDQELISKVEHIQSVRAELMASPQGALEFSFLIAEARKMLQSTLEHVEDPTRVRDMLFLDLALDELARLAVESQGLADYVAETDVQKACNLLVVLAQHVGWSMLSSAFLETSYDLAALVYGIQSDVQLQEPDFGLRLYATMERLMDCVGHDVVERLHHDVQPKAVYIGVGCNIDQKVVTLFSEELIRGQAAFALAQVLRPLMRNIRKQANLGNWQVISPGSCTGQGAVFDELLSIQYKTFAEPTVAFVRRISGEEEIPTGMVGLITTDTLDILSHCAVRARNEHVVLACCFSEELFDQLTERFRGAWVAVRSLTDGSLDFQPIQEGAGRTTAADTTDGASEHAQRRAVSMRSDIEKKPVKSVLGIAQFNTQRGGSKSNSLAKLIRVIPDWIHIPPCALLPFGVCEQVLAEAQNSDVGERFQQLMAELDGKGPTDDCSALLARLRHCVRQLAPSDTFMKELQQVLQHEGFHSIDNLDMRRAWECILDVWASKFNDRAFLALRKAGAVGKTSLSSLYMAVLVQEVVPADYAFVLHTKNPFTGEPSEIYGELVHGLGEVLVGNYPGRALGFTYSKSTGQVRVCNYPSKTKALIPRGGLIFRSDSNGEDLEDFAGAGLFDSILMQPAEEVVVRYRELKILQDKAYLERILSKIGKCGIEIESNCGNKPQDIEGCICGEDVYVVQSRDQV
modifications: Fragment of Cyanidioschyzon merolae GWD polypeptide
notes: truncated Cm-GWD encoding the second predicted CBM and catalytic dikinase domain
ability to phosphorylate starch (specific activity) [1]: active glucan dikinase

B3: Cm-GWD H1162A: active site mutant (H1162A) of Cm-GWD 511C fragment (protein)
chain: MTILGLERRSLDDDGETVICFSVEEDGFALRVHADLSPLVIHWGIARHRVTEFLQPDESLAVETKGRTYRFENKAMRTEFVPDEHHQGTYYAEIHLKKEHAPRAVTFVLFNPELNRWYRAEGGGNFVLRMDLESFSQLPGSVGKHEDVAQKIIEVEVEYGSWTLMHRYNLANDILRNSMSALDADLLQIVFVWLRYSFLRQLDWQRSYNTQPRLLAHAQEQLTTTLAQVFVSRPDLRLWVRLCLSMLGRGGGNGQRIRDDILRIMHKHHIPETPGHFMEQWHQKLHNNTTPDDVAICESYLAFLRSNGDKNVFYETLQKHGVTKERLASYERPIFAEVQTYPCDTNSLIHDFEEYLHVLKSVHSGTDLAVVLDYARWTLDQELISKVEHIQSVRAELMASPQGALEFSFLIAEARKMLQSTLEHVEDPTRVRDMLFLDLALDELARLAVESQGLADYVAETDVQKACNLLVVLAQHVGWSMLSSAFLETSYDLAALVYGIQSDVQLQEPDFGLRLYATMERLMDCVGHDVVERLHHDVQPKAVYIGVGCNIDQKVVTLFSEELIRGQAAFALAQVLRPLMRNIRKQANLGNWQVISPGSCTGQGAVFDELLSIQYKTFAEPTVAFVRRISGEEEIPTGMVGLITTDTLDILSACAVRARNEHVVLACCFSEELFDQLTERFRGAWVAVRSLTDGSLDFQPIQEGAGRTTAADTTDGASEHAQRRAVSMRSDIEKKPVKSVLGIAQFNTQRGGSKSNSLAKLIRVIPDWIHIPPCALLPFGVCEQVLAEAQNSDVGERFQQLMAELDGKGPTDDCSALLARLRHCVRQLAPSDTFMKELQQVLQHEGFHSIDNLDMRRAWECILDVWASKFNDRAFLALRKAGAVGKTSLSSLYMAVLVQEVVPADYAFVLHTKNPFTGEPSEIYGELVHGLGEVLVGNYPGRALGFTYSKSTGQVRVCNYPSKTKALIPRGGLIFRSDSNGEDLEDFAGAGLFDSILMQPAEEVVVRYRELKILQDKAYLERILSKIGKCGIEIESNCGNKPQDIEGCICGEDVYVVQSRDQV
modifications: Fragment of Cyanidioschyzon merolae GWD polypeptide
ability to phosphorylate starch (specific activity) [1]: lacked activity
